Results from the Immune Epitope Database (IEDB).
pKd: −log10 of the molar value.

Experiments:
HLA-B*51:01 = assay: IEDB peptide-MHC binding, purified MHC/competitive/radioactivity; filed as Kd, often an IC50 or EC50 that approximates it; ≥ and ≤ were set here for values at or beyond the usual limits of such assays
HLA-B*44:03 = assay: as above
HLA-B*44:02 = assay: as above; conditions: source organism: Dengue virus 1 Singapore/S275/1990
HLA-B*53:01 = assay: as above
HLA-B*08:01 = assay: as above; conditions: source organism: Vaccinia virus WR
HLA-B*15:01 = assay: as above; conditions: source organism: Vaccinia virus WR
HLA-B*15:03 = assay: as above
HLA-A*32:01 = assay: as above
HLA-A*30:01 = assay: as above
HLA-A*02:01 [1] = assay: IEDB peptide-MHC binding, purified MHC/competitive/fluorescence; filed as Kd, often an IC50 or EC50 that approximates it; ≥ and ≤ were set here for values at or beyond the usual limits of such assays; conditions: source organism: Vaccinia virus Copenhagen
HLA-A*02:01 [2] = assay: IEDB peptide-MHC binding, purified MHC/competitive/radioactivity; filed as Kd, often an IC50 or EC50 that approximates it; ≥ and ≤ were set here for values at or beyond the usual limits of such assays
HLA-B*07:02 = assay: as above
HLA-A*30:02 = assay: as above
HLA-A*26:01 = assay: as above
HLA-A*29:02 = assay: as above
HLA-A*01:01 = assay: as above
HLA-A*23:01 = assay: as above; conditions: source organism: Mammarenavirus whitewaterense
HLA-A*24:02 = assay: as above; conditions: source organism: Mammarenavirus whitewaterense
HLA-B*40:01 = assay: as above
HLA-B*48:01 = assay: IEDB peptide-MHC binding, purified MHC/direct/fluorescence; filed as Kd, often an IC50 or EC50 that approximates it; ≥ and ≤ were set here for values at or beyond the usual limits of such assays
[3] = source organism: Dengue virus 1 Brazil/97-11/1997
[4] = source organism: Dengue virus 1 Singapore/S275/1990
[5] = source organism: Vaccinia virus WR
[6] = source organism: Mammarenavirus whitewaterense
[7] = source organism: Dengue virus 3 Martinique/1243/1999
[8] = source organism: Vaccinia virus Copenhagen
[9] = source organism: Dengue virus 4 Philippines/H241/1956
[10] = source organism: Mammarenavirus choriomeningitidis

MAFIAFLRFL was tested, and the pKd (HLA-B*51:01; [3]) was 4.79.
MEVTARWLW was tested, and the pKd (HLA-B*44:03; [4]) was 7.96, the pKd (HLA-B*44:02) was 8.68 and the pKd (HLA-B*53:01; [4]) was 6.09.
With MIEEVMRSRW the pKd (HLA-B*53:01; [3]) was 6.78.
Sequence MIKIALSVA has a pKd (HLA-B*08:01) of 6.27, a pKd (HLA-B*15:01) of 5.56 and a pKd (HLA-B*15:03; [5]) of 6.25. The pKd (HLA-A*32:01; [5]) was 5.33 and the pKd (HLA-A*30:01; [5]) was 5.90.
In the case of MKSLAMTAF, the pKd (HLA-B*15:03; [5]) was 9.74.
For MLVSQALNSV, the pKd (HLA-A*02:01 [1]) was 8.47.
In the case of MTSYQYLII, the pKd (HLA-A*02:01 [2]; source organism: Lassa virus Josiah) was 6.03.
Work on QPMEHKYSW yielded a pKd (HLA-B*07:02; [3]) of 6.85 and a pKd (HLA-B*53:01; [3]) of 7.24.
With RAAGLQDCTML the pKd (HLA-A*02:01 [2]; source organism: Hepatitis C virus (isolate 1)) was at most 4.30.
RCWLTKNGSY was tested, and the pKd (HLA-A*30:02; [6]) was 7.24, the pKd (HLA-A*26:01; [6]) was at most 4.63 and the pKd (HLA-A*29:02; [6]) was 5.05. The pKd (HLA-A*01:01; [6]) was 4.72, the pKd (HLA-A*23:01) was at most 4.15 and the pKd (HLA-A*32:01; [6]) was at most 4.16. It also gave a pKd (HLA-A*24:02) of at most 4.15 and a pKd (HLA-A*30:01; [6]) of 5.42.
For RLNPEVSYF, the pKd (HLA-B*15:01) was 9.52 and the pKd (HLA-B*15:03; [5]) was 9.49.
Work on RLQPNQPPK yielded a pKd (HLA-B*08:01) of 6.00, a pKd (HLA-B*15:01) of 6.03 and a pKd (HLA-B*15:03; [5]) of 6.53. The pKd (HLA-A*32:01; [5]) was 5.82 and the pKd (HLA-A*30:01; [5]) was 6.84.
Sequence RSHIRKPPS has a pKd (HLA-B*08:01) of 5.48, a pKd (HLA-B*15:01) of 4.96 and a pKd (HLA-B*15:03; [5]) of at most 4.64. For the same sequence, the pKd (HLA-A*32:01; [5]) was at most 4.11 and the pKd (HLA-A*30:01; [5]) was 7.09.
SETQHGTIL showed a pKd (HLA-B*40:01; [7]) of 8.40 and a pKd (HLA-B*44:03; [7]) of 6.90.
For SMWYIPNVF, the pKd (HLA-B*15:03; [8]) was 9.14 and the pKd (HLA-A*32:01; [8]) was 8.29.
SMYPSYIEF gave a pKd (HLA-B*15:03; [5]) of 9.96.
Work on SPIEDIEREI yielded a pKd (HLA-B*07:02; [9]) of 5.26, a pKd (HLA-B*51:01; [9]) of at most 4.66 and a pKd (HLA-B*53:01; [9]) of 6.39.
With SRLTYQWHK the pKd (HLA-B*48:01; source organism: Yellow fever virus) was at most 4.70.
In the case of SSKVFLKAF, the pKd (HLA-B*08:01) was 6.14, the pKd (HLA-B*15:01) was 8.77 and the pKd (HLA-B*15:03; [5]) was 9.43. It also gave a pKd (HLA-A*32:01; [5]) of 5.15 and a pKd (HLA-A*30:01; [5]) of 5.62.
Work on TEEIAVQNWL yielded a pKd (HLA-B*40:01; source organism: Dengue virus 2 Jamaica/1409/1983) of 6.98.
In the case of VGVNHSNTF, the pKd (HLA-B*15:03; [5]) was 7.09.
For VLEDVQAAGI, the pKd (HLA-A*02:01 [1]) was 6.64.
With VTERIFREY the pKd (HLA-A*30:02; [10]) was 6.06, the pKd (HLA-A*26:01; [10]) was at most 4.35 and the pKd (HLA-A*29:02; [10]) was 5.06. The pKd (HLA-A*01:01; [10]) was 8.06, the pKd (HLA-A*32:01; [10]) was 4.89 and the pKd (HLA-A*30:01; [10]) was 5.40.
Work on YKFSCGLSL yielded a pKd (HLA-B*15:03; [5]) of 9.88.
YRLRGEARK was tested, and the pKd (HLA-B*48:01; [4]) was at most 4.70.
